Laboratory results taken from the supplement of paper PMC9732359.
± gives the uncertainty stated by the source.

Test: protein stability index of a GFP-peptide fusion (yeast GPS) (PSI 1-4); higher = more stable; sorted into four equal gates, so the index is relative within each strain
In short: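 For each peptide, the protein stability index sums the read frequency in every gate after multiplying it by the gate number. Read frequencies came from plasmids that were PCR-amplified from each gate and Illumina-sequenced, with reads assigned to strains by barcodes. The gates were four equal bins of GFP/Cherry fluorescence ratio applied to mid-log yeast in leucine-free medium carrying a pooled library of tiled 17-residue yeast protein peptides fused downstream of GFP on a Cherry-expressing plasmid.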

Sequence | protein stability index (doa10∆) | protein stability index (pdr5∆) | protein stability index (san1∆) | protein stability index (ubr1∆)
KRTIRIKTQQHILPEVP [TAF14] | 1.92 ± 0.059 | 2.02 ± 0.049 | 2.2 ± 0.066 | 2.07 ± 0.063
KRVDFSGRTVISPDPNL [RPO31] | 2.44 ± 0.1 | 2.65 ± 0.11 | 3.2 ± 0.14 | 2.83 ± 0.086
KSAISNNFRESDIIILK [SIR4] | 3 ± 0.08 | 2.56 ± 0.065 | 2.96 ± 0.06 | 3.09 ± 0.059
KSFYSTATGAASKSGKL [CYT1] | 2.74 ± 0.091 | 2.62 ± 0.1 | 2.87 ± 0.079 | 2.75 ± 0.059
KSGRINGFHGRLGDLGV [SMC4] | 3.41 ± 0.11 | 3.43 ± 0.093 | 3.13 ± 0.1 | 3.31 ± 0.045
KSMASAFGVSVAFLDND [RPN7] | 3.04 ± 0.091 | 3.08 ± 0.093 | 3.01 ± 0.066 | 3.24 ± 0.062
KSMGRKCFDDIEPHIFD [YCG1] | 3.15 ± 0.075 | 3.07 ± 0.084 | 3.29 ± 0.046 | 3.32 ± 0.048
KSMLSKPETLSIGKNPF [SWI3] | 2.69 ± 0.053 | 2.91 ± 0.054 | 2.6 ± 0.05 | 2.9 ± 0.037
KSMSILNSFVNDIFERI [HTB1] | 2.73 ± 0.1 | 3.18 ± 0.13 | 2.47 ± 0.2 | 2.94 ± 0.062
KSSFVKESAVISKQKSK [SMC1] | 2.18 ± 0.1 | 2.34 ± 0.046 | 2.26 ± 0.064 | 2.37 ± 0.037
KSSLYSAQDLLDKHERK [YIL149C/MLP2] | 3.05 ± 0.084 | 3.01 ± 0.075 | 2.83 ± 0.11 | 3.15 ± 0.036
KSSPISNEAAKPSFSFP [YOR098C/NUP1] | 2.86 ± 0.05 | 2.93 ± 0.045 | 2.96 ± 0.037 | 3 ± 0.04
KSTYRTPNFDDVLKENN [RIP1] | 1.54 ± 0.087 | 1.45 ± 0.12 | 1.38 ± 0.14 | 2.1 ± 0.079
KSVEKTMIKKTTLVTRR [SMC3] | 3.17 ± 0.23 | 3.19 ± 0.12 | 2.91 ± 0.066 | 3.4 ± 0.2
KTAIEGSYIDKKCPFTG [RPS11A] | 3.12 ± 0.069 | 3.37 ± 0.075 | 3.08 ± 0.051 | 3.27 ± 0.036
KTAPIQESFVPNSERSG [YOR098C/NUP1] | 2.27 ± 0.24 | 2.42 ± 0.11 | 1.4 ± 0.26 | 3.03 ± 0.081
KTAQTLDENLNSLSSNL [YJL041W/NSP1] | 2.48 ± 0.04 | 2.29 ± 0.055 | 2.23 ± 0.061 | 2.46 ± 0.037
KTATVKINKKLNKAGKP [RPL38] | 2.73 ± 0.17 | 3.21 ± 0.11 | 3.22 ± 0.098 | 3.19 ± 0.1
KTCAKSVIQLCGGINDS [ECM29] | 3.43 ± 0.26 | – | – | –
KTFEIKEIKTNEYVIKT [YMR129W/POM152] | 2.58 ± 0.1 | 2.25 ± 0.089 | 1.92 ± 0.091 | 2.02 ± 0.047
KTIQINNEKVVQYLRSV [YML031W/NDC1] | 3.23 ± 0.17 | 3.24 ± 0.12 | – | –
KTKKEKGPNEEEKKKEH [RPN2] | 3.05 ± 0.28 | 3.32 ± 0.16 | 3.49 ± 0.081 | 3.13 ± 0.19
KTLHSQMMSKGIGALFT [RPC34] | – | – | – | 3.18 ± 0.21
KTLTEEVTKSSHVENLE [YIL149C/MLP2] | 2.81 ± 0.053 | 2.94 ± 0.053 | 2.86 ± 0.051 | 3.13 ± 0.035
KTTNTTPSFSFGAKSDE [YJL041W/NSP1] | 3.27 ± 0.079 | 3.24 ± 0.082 | 3.09 ± 0.035 | 3.18 ± 0.048
KTVAVDSVFEQNEMIDA [RPL3] | 2.57 ± 0.095 | 2.75 ± 0.12 | 2.31 ± 0.11 | 2.51 ± 0.042
KTVQSMTQRAIQSAESI [SWI3] | 2.5 ± 0.11 | 1.8 ± 0.079 | 2.53 ± 0.13 | 1.82 ± 0.12
KTYALESINNVVDQLWS [RPN2] | 2.82 ± 0.066 | 2.9 ± 0.059 | 2.7 ± 0.07 | 2.6 ± 0.055
